From the supplement of paper PMC11316812 come the findings set out here.

± gives the standard deviation of the averaged measurements.

The test system of one data set is MCF7. The data set can be described thus: percentage of EdU-negative (G0-arrested) nuclei per well, 72 h; higher = more G0 arrest. The settings on record: reference: sequence is the full UniProt precursor, the tested protein was the secreted form or ectodomain.
Another data set concerns hTERT-HMEC. Described as above. Particulars: reference: sequence is the full UniProt precursor, the tested protein was the secreted form or ectodomain.
[1] abbreviates: protein concentration 0.00685714 µM.
The mark [2] stands for this setting: protein concentration 0.0685714 µM.
The mark [3] stands for this setting: protein concentration 0.01575 µM.
Where [4] appears, read: protein concentration 0.1575 µM.
The mark [5] stands for this setting: protein concentration 0.0225 µM.
[6] abbreviates: protein concentration 0.0075 µM.
Setting [7] is: protein concentration 0.0102857 µM.
The mark [8] stands for this setting: protein concentration 0.102857 µM.
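Note: secreted proteins added to cultured cells, EdU pulse at the end, nuclei found by Hoechst imaging, EdU status from nuclear versus surrounding ring intensity ratio, PBS as neutral control.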

As for “MAAVRGAPLLSCLLALLALCPGGRPQTVLTDDEIEEFLEGFLSELEPEPREDDVEAPPPPEPTPRVRKAQAGGKPGKRPGTAAEVPPEKTKDKGKKGKKDKGPKVPKESLEGSPRPPKKGKEKPPKATKKPKEKPPKATKKPKEKPPKATKKPKEKPPKATKKPPSGKRPPILAPSETLEWPLPPPPSPGPEELPQEGGAPLSNNWQNPGEETHVEAREHQPEPEEETEQPTLDYNDQIEREDYEDFEYIRRQKQPRPPPSRRRRPERVWPEPPEEKAPAPAPEERIEPPVKPLLPPLPPDYGDGYVIPNYDDMDYYFGPPPPQKPDAERQTDEEKEELKKPKKEDSSPKEETDKWAVEKGKDHKEPRKGEELEEEWTPTEKVKCPPIGMESHRIEDNQIRASSMLRHGLGAQRGRLNMQTGATEDDYYDGAWCAEDDARTQWIEVDTRRTTRFTGVITQGRDSSIHDDFVTTFFVGFSNDSQTWVMYTNGYEEMTFHGNVDKDTPVLSELPEPVVARFIRIYPLTWNGSLCMRLEVLGCSVAPVYSYYAQNEVVATDDLDFRHHSYKDMRQLMKVVNEECPTITRTYSLGKSSRGLKIYAMEISDNPGEHELGEPEFRYTAGIHGNEVLGRELLLLLMQYLCREYRDGNPRVRSLVQDTRIHLVPSLNPDGYEVAAQMGSEFGNWALGLWTEEGFDIFEDFPDLNSVLWGAEERKWVPYRVPNNNLPIPERYLSPDATVSTEVRAIIAWMEKNPFVLGANLNGGERLVSYPYDMARTPTQEQLLAAAMAAARGEDEDEVSEAQETPDHAIFRWLAISFASAHLTLTEPYRGGCQAQDYTGGMGIVNGAKWNPRTGTINDFSYLHTNCLELSFYLGCDKFPHESELPREWENNKEALLTFMEQVHRGIKGVVTDEQGIPIANATISVSGINHGVKTASGGDYWRILNPGEYRVTAHAEGYTPSAKTCNVDYDIGATQCNFILARSNWKRIREIMAMNGNRPIPHIDPSRPMTPQQRRLQQRRLQHRLRLRAQMRLRRLNATTTLGPHTVPPTLPPAPATTLSTTIEPWGLIPPTTAGWEESETETYTEVVTEFGTEVEPEFGTKVEPEFETQLEPEFETQLEPEFEEEEEEEKEEEIATGQAFPFTTVETYTVNFGDF [Q8IUX7]”, the “percentage of EdU-negative” value was determined as 24.8 ± 1.1% in the data set on MCF7 (setting [1]), 28.5 ± 0.34% in the data set on MCF7 (setting [2]), 4.79 ± 0.43% with hTERT-HMEC (setting [1]) and 11.5 ± 0.62% with hTERT-HMEC (setting [2]).

Consider “MAAVVAATRWWQLLLVLSAAGMGASGAPQPPNILLLLMDDMGWGDLGVYGEPSRETPNLDRMAAEGLLFPNFYSANPLCSPSRAALLTGRLPIRNGFYTTNAHARNAYTPQEIVGGIPDSEQLLPELLKKAGYVSKIVGKWHLGHRPQFHPLKHGFDEWFGSPNCHFGPYDNKARPNIPVYRDWEMVGRYYEEFPINLKTGEANLTQIYLQEALDFIKRQARHHPFFLYWAVDATHAPVYASKPFLGTSQRGRYGDAVREIDDSIGKILELLQDLHVADNTFVFFTSDNGAALISAPEQGGSNGPFLCGKQTTFEGGMREPALAWWPGHVTAGQVSHQLGSIMDLFTTSLALAGLTPPSDRAIDGLNLLPTLLQGRLMDRPIFYYRGDTLMAATLGQHKAHFWTWTNSWENFRQGIDFCPGQNVSGVTTHNLEDHTKLPLIFHLGRDPGERFPLSFASAEYQEALSRITSVVQQHQEALVPAQPQLNVCNWAVMNWAPPGCEKLGKCLTPPESIPKKCLWSH”, for which the “percentage of EdU-negative” value stood at 27.9 ± 1.1% in the data set with MCF7 (setting [3]), 26.9 ± 0.35% in the data set on MCF7 (setting [4]), 5.59 ± 0.71% with hTERT-HMEC (setting [3]) and 24.2 ± 1.3% in the data set on hTERT-HMEC (setting [4]).

Consider “MAAWSPAAAAPLLRGIRGLPLHHRMFATQTEGELRVTQILKEKFPRATAIKVTDISGGCGAMYEIKIESEEFKEKRTVQQHQMVNQALKEEIKEMHGLRIFTSVPKR [Q53S33]”, for which the “percentage of EdU-negative” value worked out at 26.66 ± 0.12% in the data set on MCF7 (setting [5]), 26.7 ± 1.7% in the data set on MCF7 (protein concentration 0.225 µM), 4.56 ± 0.98% with hTERT-HMEC (setting [5]) and 5.94 ± 0.72% with hTERT-HMEC (protein concentration 0.225 µM).

With “MACWWPLLLELWTVMPTWAGDELLNICMNAKHHKRVPSPEDKLYEECIPWKDNACCTLTTSWEAHLDVSPLYNFSLFHCGLLMPGCRKHFIQAICFYECSPNLGPWIQPVGSLGWEVAPSGQGERVVNVPLCQEDCEEWWEDCRMSYTCKSNWRGGWDWSQGKNRCPKGAQCLPFSHYFPTPADLCEKTWSNSFKASPERRNSGRCLQKWFEPAQGNPNVAVARLFASSAPSWELSYTIMVCSLFLPFLS [A6ND01]”, the “percentage of EdU-negative” value is 24.06 ± 0.21% with MCF7 (setting [6]), 25.05 ± 0.12% in the data set with MCF7 (protein concentration 0.075 µM), 5.08 ± 0.06% in the data set on hTERT-HMEC (setting [6]) and 7.68 ± 0.15% with hTERT-HMEC (protein concentration 0.075 µM).

On to “MADKVRRQRPRRRVCWALVAVLLADLLALSDTLAVMSVDLGSESMKVAIVKPGVPMEIVLNKESRRKTPVIVTLKENERFFGDSAASMAIKNPKATLRYFQHLLGKQADNPHVALYQARFPEHELTFDPQRQTVHFQISSQLQFSPEEVLGMVLNYSRSLAEDFAEQPIKDAVITVPVFFNQAERRAVLQAARMAGLKVLQLINDNTATALSYGVFRRKDINTTAQNIMFYDMGSGSTVCTIVTYQMVKTKEAGMQPQLQIRGVGFDRTLGGLEMELRLRERLAGLFNEQRKGQRAKDVRENPRAMAKLLREANRLKTVLSANADHMAQIEGLMDDVDFKAKVTRVEFEELCADLFERVPGPVQQALQSAEMSLDEIEQVILVGGATRVPRVQEVLLKAVGKEELGKNINADEAAAMGAVYQAAALSKAFKVKPFVVRDAVVYPILVEFTREVEEEPGIHSLKHNKRVLFSRMGPYPQRKVITFNRYSHDFNFHINYGDLGFLGPEDLRVFGSQNLTTVKLKGVGDSFKKYPDYESKGIKAHFNLDESGVLSLDRVESVFETLVEDSAEEESTLTKLGNTISSLFGGGTTPDAKENGTDTVQEEEESPAEGSKDEPGEQVELKEEAEAPVEDGSQPPPPEPKGDATPEGEKATEKENGDKSEAQKPSEKAEAGPEGVAPAPEGEKKQKPARKRRMVEEIGVELVVLDLPDLPEDKLAQSVQKLQDLTLRDLEKQEREKAANSLEAFIFETQDKLYQPEYQEVSTEEQREEISGKLSAASTWLEDEGVGATTVMLKEKLAELRKLCQGLFFRVEERKKWPERLSALDNLLNHSSMFLKGARLIPEMDQIFTEVEMTTLEKVINETWAWKNATLAEQAKLPATEKPVLLSKDIEAKMMALDREVQYLLNKAKFTKPRPRPKDKNGTRAEPPLNASASDQGEKVIPPAGQTEDAEPISEPEKVETGSEPGDTEPLELGGPGAEPEQKEQSTGQKRPLKNDEL [Q9Y4L1]”, for which the “percentage of EdU-negative” value in the data set on MCF7 (setting [7]) came out at 23.6 ± 1.2%; in the data set with MCF7 (setting [8]) it was 30.4 ± 1.7%; with hTERT-HMEC (setting [7]) it was 6.45 ± 1.3%; in the data set with hTERT-HMEC (setting [8]), 35.3 ± 5.6%.

As for “MAEAKTHWLGAALSLIPLIFLISGAEAASFQRNQLLQKEPDLRLENVQKFPSPEMIRALEYIENLRQQAHKEESSPDYNPYQGVSVPLQQKENGDESHLPERDSLSEEDWMRIILEALRQAENEPQSAPKENKPYALNSEKNFPMDMSDDYETQQWPERKLKHMQFPPMYEENSRDNPFKRTNEIVEEQYTPQSLATLESVFQELGKLTGPNNQKRERMDEEQKLYTDDEDDIYKANNIAYEDVVGGEDWNPVEEKIESQTQEEVRDSKENIEKNEQINDEMKRSGQLGIQEEDLRKESKDQLSDDVSKVIAYLKRLVNAAGSGRLQNGQNGERATRLFEKPLDSQSIYQLIEISRNLQIPPEDLIEMLKTGEKPNGSVEPERELDLPVDLDDISEADLDHPDLFQNRMLSKSGYPKTPGRAGTEALPDGLSVEDILNLLGMESAANQKTSYFPNPYNQEKVLPRLPYGAGRSRSNQLPKAAWIPHVENRQMAYENLNDKDQELGEYLARMLVKYPEIINSNQVKRVPGQGSSEDDLQEEEQIEQAIKEHLNQGSSQETDKLAPVSKRFPVGPPKNDDTPNRQYWDEDLLMKVLEYLNQEKAEKGREHIAKRAMENM”, the “percentage of EdU-negative” value with MCF7 (protein concentration 0.006 µM) was found to be 26.9 ± 0.33%; in the data set with MCF7 (protein concentration 0.06 µM), 27.1 ± 1.7%; in the data set with hTERT-HMEC (protein concentration 0.006 µM) it was 5.24 ± 0.54%; with hTERT-HMEC (protein concentration 0.06 µM), 5.44 ± 0.097%.

As for “MAEGNTLISVDYEIFGKVQGVFFRKHTQAEGKKLGLVGWVQNTDRGTVQGQLQGPISKVRHMQEWLETRGSPKSHIDKANFNNEKVILKLDYSDFQIVK [G3V2U7]”, the “percentage of EdU-negative” value in the data set on MCF7 (setting [5]) is 24.4 ± 1.6%; in the data set with MCF7 (protein concentration 0.225 µM), 25.9 ± 3.2%; in the data set with hTERT-HMEC (setting [5]), 4.35 ± 0.4%; in the data set with hTERT-HMEC (protein concentration 0.225 µM), 5.31 ± 0.75%.

As for “MAESAGASSFFPLVVLLLAGSGGSGPRGVQALLCACTSCLQANYTCETDGACMVSIFNLDGMEHHVRTCIPKVELVPAGKPFYCLSSEDLRNTHCCYTDYCNRIDLRVPSGHLKEPEHPSMWGPVELVGIIAGPVFLLFLIIIIVFLVINYHQRVYHNRQRLDMEDPSCEMCLSKDKTLQDLVYDLSTSGSGSGLPLFVQRTVARTIVLQEIIGKGRFGEVWRGRWRGGDVAVKIFSSREERSWFREAEIYQTVMLRHENILGFIAADNKDNGTWTQLWLVSDYHEHGSLFDYLNRYTVTIEGMIKLALSAASGLAHLHMEIVGTQGKPGIAHRDLKSKNILVKKNGMCAIADLGLAVRHDAVTDTIDIAPNQRVGTKRYMAPEVLDETINMKHFDSFKCADIYALGLVYWEIARRCNSGGVHEEYQLPYYDLVPSDPSIEEMRKVVCDQKLRPNIPNWWQSYEALRVMGKMMRECWYANGAARLTALRIKKTLSQLSVQEDVKI”, the “percentage of EdU-negative” value in the data set with MCF7 (setting [5]) came to 25.1 ± 0.54%; in the data set on MCF7 (protein concentration 0.225 µM), 25.3 ± 3.2%; with hTERT-HMEC (setting [5]) it was 5.48 ± 0.32%; in the data set on hTERT-HMEC (protein concentration 0.225 µM) it was 6.41 ± 1.6%.

“MAFAWWPCLILALLSSLAASGFPRSPFRLLGKRSLPEGVANGIEVYSTKINSKVTSRFAHNVVTMRAVNRADTAKEVSFDVELPKTAFITNFTLTIDGVTYPGNVKEKEVAKKQYEKAVSQGKTAGLVKASGRKLEKFTVSVNVAAGSKVTFELTYEELLKRHKGKYEMYLKVQPKQLVKHFEIEVDIFEPQGISMLDAEASFITNDLLGSALTKSFSGKKGHVSFKPSLDQQRSCPTCTDSLLNGDFTITYDVNRESPGNVQIVNGYFVHFFAPQGLPVVPKNVAFVIDISGSMAGRKLEQTKEALLRILEDMQEEDYLNFILFSGDVSTWKEHLVQATPENLQEARTFVKSMEDKGMTNINDGLLRGISMLNKAREEHRIPERSTSIVIMLTDGDANVGESRPEKIQENVRNAIGGKFPLYNLGFGNNLNYNFLENMALENHGFARRIYEDSDADLQLQGFYEEVANPLLTGVEMEYPENAILDLTQNTYQHFYDGSEIVVAGRLVDEDMNSFKADVKGHGATNDLTFTEEVDMKEMEKALQERDYIFGNYIERLWAYLTIEQLLEKRKNAHGEEKENLTARALDLSLKYHFVTPLTSMVVTKPEDNEDERAIADKPGEDAEATPVSPAMSYLTSYQPPQNPYYYVDGDPHFIIQIPEKDDALCFNIDEAPGTVLRLIQDAVTGLTVNGQITGDKRGSPDSKTRKTYFGKLGIANAQMDFQVEVTTEKITLWNRAVPSTFSWLDTVTVTQDGLSMMINRKNMVVSFGDGVTFVVVLHQVWKKHPVHRDFLGFYVVDSHRMSAQTHGLLGQFFQPFDFKVSDIRPGSDPTKPDATLVVKNHQLIVTRGSQKDYRKDASIGTKVVCWFVHNNGEGLIDGVHTDYIVPNLF”: the “percentage of EdU-negative” value in the data set with MCF7 (setting [5]) is 26.1 ± 2.2%; in the data set with MCF7 (protein concentration 0.225 µM), 27.2 ± 3.3%; in the data set on hTERT-HMEC (setting [5]) it was 4.75 ± 1%; in the data set on hTERT-HMEC (protein concentration 0.225 µM) it was 6.22 ± 0.29%.
